B1: PDZK1 (parent)
chain: QKEQGLSDNILSPVMNGGVQTWTQ
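Further: lentivirally expressed fusions sorted by FACS into six bins by GFP to DsRed ratio, PSI derived from sequencing read proportions per bin multiplied by bin number.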

This series covers variants of B1. The experiment in a line: protein stability index of a GFP-peptide fusion (GPS, HEK-293T) (PSI 1-6); higher = more stable. The following applies: c terminus: a fixed tail appended.
As to QKELGLSDNILSPVMNGGVQTWTQ [Q4L], the protein stability index worked out at 2.14.

Take QKEEGLSDNILSPVMNGGVQTWTQ [Q4E]: the protein stability index turned out to be 2.85. Consider QKERGLSDNILSPVMNGGVQTWTQ [Q4R], for which the protein stability index stood at 3.73. With QKEVGLSDNILSPVMNGGVQTWTQ [Q4V] the figure was 2.52; with QKECGLSDNILSPVMNGGVQTWTQ [Q4C], 2.08; with QKENGLSDNILSPVMNGGVQTWTQ [Q4N], 2.29. As for QKEKGLSDNILSPVMNGGVQTWTQ [Q4K], the protein stability index is 2.08. In the case of QKEFGLSDNILSPVMNGGVQTWTQ [Q4F], the protein stability index turned out to be 2.21. For QKEMGLSDNILSPVMNGGVQTWTQ [Q4M], the protein stability index amounted to 1.82. With QKEWGLSDNILSPVMNGGVQTWTQ [Q4W] the figure was 1.85; with QKEQGLEDNILSPVMNGGVQTWTQ [S7E], 3.43; with QKEQGLIDNILSPVMNGGVQTWTQ [S7I], 2.48.

Take QKEQGLADNILSPVMNGGVQTWTQ [S7A]: the protein stability index stood at 2.51. With QKEQGLYDNILSPVMNGGVQTWTQ [S7Y] the figure was 2.12. Turning to QKEQGLMDNILSPVMNGGVQTWTQ [S7M], the protein stability index came to 2.68. With QKEQGLTDNILSPVMNGGVQTWTQ [S7T] the figure was 2.09; with QKEQGLQDNILSPVMNGGVQTWTQ [S7Q], 2.13. With QKEQGLKDNILSPVMNGGVQTWTQ [S7K] the figure was 2.18; with QKEQGLGDNILSPVMNGGVQTWTQ [S7G], 3.19; with QKEQGLDDNILSPVMNGGVQTWTQ [S7D], 2.54.

As for QKEQGLFDNILSPVMNGGVQTWTQ [S7F], the protein stability index was found to be 2. With QKEQGLCDNILSPVMNGGVQTWTQ [S7C] the figure was 3.27; with QKEQGLPDNILSPVMNGGVQTWTQ [S7P], 3.36. Take QKEQGLNDNILSPVMNGGVQTWTQ [S7N]: the protein stability index came out at 2.77. QKWQGLSDNILSPVMNGGVQTWTQ [E3W]: the protein stability index amounted to 2.17. On to QKYQGLSDNILSPVMNGGVQTWTQ [E3Y], for which the protein stability index is 1.68. QKEQGLSDNILSPRMNGGVQTWTQ [V14R]: the protein stability index was determined as 2.64. With QKEQGLSDNILSPIMNGGVQTWTQ [V14I] the figure was 2.4; with QKEQGLSDNILSPYMNGGVQTWTQ [V14Y], 1.94. QKEQGLSDNILSPCMNGGVQTWTQ [V14C]: the protein stability index is 3.74. With QKEQGLSDNILSPKMNGGVQTWTQ [V14K] the figure was 2.54. Consider QKEQGLSDNILSPGMNGGVQTWTQ [V14G], for which the protein stability index stood at 1.5. With QKEQGLSDNILSPEMNGGVQTWTQ [V14E] the figure was 2.78. With QKEQGLSDNILSPNMNGGVQTWTQ [V14N] the figure was 2.77. With QKEQGLSDNILSPTMNGGVQTWTQ [V14T] the figure was 2.93; with QKEQGLSDNILSPPMNGGVQTWTQ [V14P], 2.47; with QKEQGLSDNILSPMMNGGVQTWTQ [V14M], 2.65. Regarding QKEQGLSDNILSPSMNGGVQTWTQ [V14S], the protein stability index was found to be 2.91. With QKEQGLSDNILSPHMNGGVQTWTQ [V14H] the figure was 2.46; with QKEQGLSDNILSPQMNGGVQTWTQ [V14Q], 2.9; with QKEQGLSDNILSPAMNGGVQTWTQ [V14A], 3.29. For QKEQGLSDNFLSPVMNGGVQTWTQ [I10F], the protein stability index was determined as 2.04. With QKEQGLSDNQLSPVMNGGVQTWTQ [I10Q] the figure was 3.34; with QKEQGLSDNELSPVMNGGVQTWTQ [I10E], 3.89; with QKEQGLSDNGLSPVMNGGVQTWTQ [I10G], 2.83.

Regarding QKEQGLSDNALSPVMNGGVQTWTQ [I10A], the protein stability index came out at 2.89. For QKEQGLSDNCLSPVMNGGVQTWTQ [I10C], the protein stability index amounted to 3.03. With QKEQGLSDNMLSPVMNGGVQTWTQ [I10M] the figure was 2.67; with QKEQGLSDNVLSPVMNGGVQTWTQ [I10V], 2.56; with QKEQGLSDNNLSPVMNGGVQTWTQ [I10N], 3.43. With QKEQGLSDNHLSPVMNGGVQTWTQ [I10H] the figure was 2.96. With QKEQGLSDNYLSPVMNGGVQTWTQ [I10Y] the figure was 2.6; with QKEQGLSDNRLSPVMNGGVQTWTQ [I10R], 2.35; with QKEQGLSDNKLSPVMNGGVQTWTQ [I10K], 3.02. As to QKEQGLSDNILPPVMNGGVQTWTQ [S12P], the protein stability index was 3.76. For QKEQGLSDNILFPVMNGGVQTWTQ [S12F], the protein stability index came out at 2.76. With QKEQGLSDNILWPVMNGGVQTWTQ [S12W] the figure was 1.95; with QKEQGLSDNILDPVMNGGVQTWTQ [S12D], 3.84; with QKEQGLSDNILGPVMNGGVQTWTQ [S12G], 3.21. As for QKEQGLSDNILAPVMNGGVQTWTQ [S12A], the protein stability index was determined as 2.58.

For QKEQGLSDNILYPVMNGGVQTWTQ [S12Y], the protein stability index was 2.83.

With QKEQGLSDNILTPVMNGGVQTWTQ [S12T], the protein stability index was 2.36. With QKEQGLSDNILMPVMNGGVQTWTQ [S12M] the figure was 2.22. With QKEQGLSDNILHPVMNGGVQTWTQ [S12H] the figure was 1.74.

With QKEQGLSDNILIPVMNGGVQTWTQ [S12I], the protein stability index was 3.58. Take QKEQGLSDNILKPVMNGGVQTWTQ [S12K]: the protein stability index was 2.18. With QKEQGLSDNILNPVMNGGVQTWTQ [S12N] the figure was 3.27; with QKEQGLSDNILSPVMCGGVQTWTQ [N16C], 2.75.

Regarding QKEQGLSDNILSPVMLGGVQTWTQ [N16L], the protein stability index is 2.47. With QKEQGLSDNILSPVMPGGVQTWTQ [N16P] the figure was 2.12; with QKEQGLSDNILSPVMQGGVQTWTQ [N16Q], 1.72. With QKEQGLSDNILSPVMKGGVQTWTQ [N16K] the figure was 1.49; with QKEQGLSDNILSPVMIGGVQTWTQ [N16I], 2.89.

Regarding QKEQGLSDNILSPVMHGGVQTWTQ [N16H], the protein stability index was determined as 2.81. With QKEQGLSDNILSPVMEGGVQTWTQ [N16E] the figure was 3.41; with QKEQGLSDNILSPVMDGGVQTWTQ [N16D], 3.71; with QKEQGLSDNILSPVMFGGVQTWTQ [N16F], 2.61. With QKEQGLSDNILSPVMRGGVQTWTQ [N16R] the figure was 2.34. With QKEQGLSWNILSPVMNGGVQTWTQ [D8W] the figure was 2.4; with QKEQGLSSNILSPVMNGGVQTWTQ [D8S], 2.34; with QKEQGLSCNILSPVMNGGVQTWTQ [D8C], 1.51. In the case of QKEQGLSRNILSPVMNGGVQTWTQ [D8R], the protein stability index stood at 2.59. With QKEQGLSYNILSPVMNGGVQTWTQ [D8Y] the figure was 2.15; with QKEQGLSMNILSPVMNGGVQTWTQ [D8M], 1.92. With QKEQGLSFNILSPVMNGGVQTWTQ [D8F] the figure was 1.1; with QKEQGLSVNILSPVMNGGVQTWTQ [D8V], 2.29.

Take QKEQGLSENILSPVMNGGVQTWTQ [D8E]: the protein stability index was found to be 3.04. For the variant QKEQGLSTNILSPVMNGGVQTWTQ [D8T], the protein stability index came out at 2.39. With QKEQGLSKNILSPVMNGGVQTWTQ [D8K] the figure was 2.1; with QKEQGLSNNILSPVMNGGVQTWTQ [D8N], 2.68; with QKEQGLSINILSPVMNGGVQTWTQ [D8I], 2.05. With QKEQGLSPNILSPVMNGGVQTWTQ [D8P] the figure was 2.34; with QKEQGLSGNILSPVMNGGVQTWTQ [D8G], 3.29.

Take QKEQGLSLNILSPVMNGGVQTWTQ [D8L]: the protein stability index came out at 2.73.
